Measurements from publication PMC9250616 (Angiogenesis, 2022).

Assays:
Collagen VI = assay: ELISA
Collagen I = assay: ELISA

Collagen VI, sequence (P12109 20-1028, chain 1 of 3): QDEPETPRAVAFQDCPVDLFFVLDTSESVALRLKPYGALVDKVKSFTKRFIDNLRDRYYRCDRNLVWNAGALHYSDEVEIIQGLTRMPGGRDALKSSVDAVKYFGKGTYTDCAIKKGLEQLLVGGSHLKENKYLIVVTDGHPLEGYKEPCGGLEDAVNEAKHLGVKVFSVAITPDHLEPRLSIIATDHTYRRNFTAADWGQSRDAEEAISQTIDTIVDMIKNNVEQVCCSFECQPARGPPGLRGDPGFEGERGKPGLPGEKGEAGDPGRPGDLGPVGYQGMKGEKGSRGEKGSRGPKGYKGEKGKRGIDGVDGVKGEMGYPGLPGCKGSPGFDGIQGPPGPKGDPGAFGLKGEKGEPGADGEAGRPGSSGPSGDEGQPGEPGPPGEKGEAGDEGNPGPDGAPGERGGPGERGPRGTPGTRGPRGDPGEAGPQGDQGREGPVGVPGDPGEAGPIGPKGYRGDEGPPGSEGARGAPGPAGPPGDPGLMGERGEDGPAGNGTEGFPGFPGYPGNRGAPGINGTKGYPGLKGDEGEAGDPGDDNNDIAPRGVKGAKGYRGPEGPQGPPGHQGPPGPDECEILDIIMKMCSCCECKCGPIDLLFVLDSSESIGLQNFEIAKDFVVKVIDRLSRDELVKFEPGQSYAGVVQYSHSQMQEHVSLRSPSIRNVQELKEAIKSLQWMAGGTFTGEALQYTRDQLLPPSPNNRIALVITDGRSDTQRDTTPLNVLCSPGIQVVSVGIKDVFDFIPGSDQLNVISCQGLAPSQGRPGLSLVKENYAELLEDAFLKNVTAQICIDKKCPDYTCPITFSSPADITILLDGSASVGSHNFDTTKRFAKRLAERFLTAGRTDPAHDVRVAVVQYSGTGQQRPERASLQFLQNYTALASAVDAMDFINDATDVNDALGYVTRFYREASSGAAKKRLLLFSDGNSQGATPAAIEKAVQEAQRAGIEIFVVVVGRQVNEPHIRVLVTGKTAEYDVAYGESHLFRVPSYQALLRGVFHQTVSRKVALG
Collagen VI, sequence (P12110 21-1019, chain 2 of 3, further chain): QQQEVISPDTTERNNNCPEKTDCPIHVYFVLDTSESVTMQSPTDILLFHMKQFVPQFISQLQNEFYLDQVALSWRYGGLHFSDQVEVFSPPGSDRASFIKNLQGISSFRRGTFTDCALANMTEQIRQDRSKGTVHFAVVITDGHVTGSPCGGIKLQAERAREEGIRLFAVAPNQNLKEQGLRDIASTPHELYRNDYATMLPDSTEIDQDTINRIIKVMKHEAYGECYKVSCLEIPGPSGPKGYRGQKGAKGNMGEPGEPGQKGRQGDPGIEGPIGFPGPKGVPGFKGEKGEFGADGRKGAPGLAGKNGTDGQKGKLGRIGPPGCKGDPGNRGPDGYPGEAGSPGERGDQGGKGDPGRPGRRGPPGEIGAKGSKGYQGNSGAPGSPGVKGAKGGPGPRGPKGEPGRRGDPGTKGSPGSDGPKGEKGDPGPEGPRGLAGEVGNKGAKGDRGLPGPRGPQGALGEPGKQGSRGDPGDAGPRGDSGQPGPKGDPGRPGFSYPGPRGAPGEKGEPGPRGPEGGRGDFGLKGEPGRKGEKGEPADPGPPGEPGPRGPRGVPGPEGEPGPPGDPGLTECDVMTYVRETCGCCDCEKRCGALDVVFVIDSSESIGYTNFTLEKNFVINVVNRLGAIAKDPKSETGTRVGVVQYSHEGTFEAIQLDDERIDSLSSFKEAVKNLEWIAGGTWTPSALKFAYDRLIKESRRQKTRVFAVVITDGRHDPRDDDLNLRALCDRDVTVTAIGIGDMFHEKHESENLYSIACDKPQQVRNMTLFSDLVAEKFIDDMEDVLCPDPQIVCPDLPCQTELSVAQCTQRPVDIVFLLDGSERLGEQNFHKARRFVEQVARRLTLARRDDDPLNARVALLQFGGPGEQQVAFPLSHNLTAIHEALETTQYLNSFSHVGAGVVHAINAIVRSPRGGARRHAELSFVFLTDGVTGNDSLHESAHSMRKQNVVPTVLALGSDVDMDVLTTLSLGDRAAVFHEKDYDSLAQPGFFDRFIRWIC
Collagen VI, sequence (P12111 26-3177, chain 3 of 3, further chain): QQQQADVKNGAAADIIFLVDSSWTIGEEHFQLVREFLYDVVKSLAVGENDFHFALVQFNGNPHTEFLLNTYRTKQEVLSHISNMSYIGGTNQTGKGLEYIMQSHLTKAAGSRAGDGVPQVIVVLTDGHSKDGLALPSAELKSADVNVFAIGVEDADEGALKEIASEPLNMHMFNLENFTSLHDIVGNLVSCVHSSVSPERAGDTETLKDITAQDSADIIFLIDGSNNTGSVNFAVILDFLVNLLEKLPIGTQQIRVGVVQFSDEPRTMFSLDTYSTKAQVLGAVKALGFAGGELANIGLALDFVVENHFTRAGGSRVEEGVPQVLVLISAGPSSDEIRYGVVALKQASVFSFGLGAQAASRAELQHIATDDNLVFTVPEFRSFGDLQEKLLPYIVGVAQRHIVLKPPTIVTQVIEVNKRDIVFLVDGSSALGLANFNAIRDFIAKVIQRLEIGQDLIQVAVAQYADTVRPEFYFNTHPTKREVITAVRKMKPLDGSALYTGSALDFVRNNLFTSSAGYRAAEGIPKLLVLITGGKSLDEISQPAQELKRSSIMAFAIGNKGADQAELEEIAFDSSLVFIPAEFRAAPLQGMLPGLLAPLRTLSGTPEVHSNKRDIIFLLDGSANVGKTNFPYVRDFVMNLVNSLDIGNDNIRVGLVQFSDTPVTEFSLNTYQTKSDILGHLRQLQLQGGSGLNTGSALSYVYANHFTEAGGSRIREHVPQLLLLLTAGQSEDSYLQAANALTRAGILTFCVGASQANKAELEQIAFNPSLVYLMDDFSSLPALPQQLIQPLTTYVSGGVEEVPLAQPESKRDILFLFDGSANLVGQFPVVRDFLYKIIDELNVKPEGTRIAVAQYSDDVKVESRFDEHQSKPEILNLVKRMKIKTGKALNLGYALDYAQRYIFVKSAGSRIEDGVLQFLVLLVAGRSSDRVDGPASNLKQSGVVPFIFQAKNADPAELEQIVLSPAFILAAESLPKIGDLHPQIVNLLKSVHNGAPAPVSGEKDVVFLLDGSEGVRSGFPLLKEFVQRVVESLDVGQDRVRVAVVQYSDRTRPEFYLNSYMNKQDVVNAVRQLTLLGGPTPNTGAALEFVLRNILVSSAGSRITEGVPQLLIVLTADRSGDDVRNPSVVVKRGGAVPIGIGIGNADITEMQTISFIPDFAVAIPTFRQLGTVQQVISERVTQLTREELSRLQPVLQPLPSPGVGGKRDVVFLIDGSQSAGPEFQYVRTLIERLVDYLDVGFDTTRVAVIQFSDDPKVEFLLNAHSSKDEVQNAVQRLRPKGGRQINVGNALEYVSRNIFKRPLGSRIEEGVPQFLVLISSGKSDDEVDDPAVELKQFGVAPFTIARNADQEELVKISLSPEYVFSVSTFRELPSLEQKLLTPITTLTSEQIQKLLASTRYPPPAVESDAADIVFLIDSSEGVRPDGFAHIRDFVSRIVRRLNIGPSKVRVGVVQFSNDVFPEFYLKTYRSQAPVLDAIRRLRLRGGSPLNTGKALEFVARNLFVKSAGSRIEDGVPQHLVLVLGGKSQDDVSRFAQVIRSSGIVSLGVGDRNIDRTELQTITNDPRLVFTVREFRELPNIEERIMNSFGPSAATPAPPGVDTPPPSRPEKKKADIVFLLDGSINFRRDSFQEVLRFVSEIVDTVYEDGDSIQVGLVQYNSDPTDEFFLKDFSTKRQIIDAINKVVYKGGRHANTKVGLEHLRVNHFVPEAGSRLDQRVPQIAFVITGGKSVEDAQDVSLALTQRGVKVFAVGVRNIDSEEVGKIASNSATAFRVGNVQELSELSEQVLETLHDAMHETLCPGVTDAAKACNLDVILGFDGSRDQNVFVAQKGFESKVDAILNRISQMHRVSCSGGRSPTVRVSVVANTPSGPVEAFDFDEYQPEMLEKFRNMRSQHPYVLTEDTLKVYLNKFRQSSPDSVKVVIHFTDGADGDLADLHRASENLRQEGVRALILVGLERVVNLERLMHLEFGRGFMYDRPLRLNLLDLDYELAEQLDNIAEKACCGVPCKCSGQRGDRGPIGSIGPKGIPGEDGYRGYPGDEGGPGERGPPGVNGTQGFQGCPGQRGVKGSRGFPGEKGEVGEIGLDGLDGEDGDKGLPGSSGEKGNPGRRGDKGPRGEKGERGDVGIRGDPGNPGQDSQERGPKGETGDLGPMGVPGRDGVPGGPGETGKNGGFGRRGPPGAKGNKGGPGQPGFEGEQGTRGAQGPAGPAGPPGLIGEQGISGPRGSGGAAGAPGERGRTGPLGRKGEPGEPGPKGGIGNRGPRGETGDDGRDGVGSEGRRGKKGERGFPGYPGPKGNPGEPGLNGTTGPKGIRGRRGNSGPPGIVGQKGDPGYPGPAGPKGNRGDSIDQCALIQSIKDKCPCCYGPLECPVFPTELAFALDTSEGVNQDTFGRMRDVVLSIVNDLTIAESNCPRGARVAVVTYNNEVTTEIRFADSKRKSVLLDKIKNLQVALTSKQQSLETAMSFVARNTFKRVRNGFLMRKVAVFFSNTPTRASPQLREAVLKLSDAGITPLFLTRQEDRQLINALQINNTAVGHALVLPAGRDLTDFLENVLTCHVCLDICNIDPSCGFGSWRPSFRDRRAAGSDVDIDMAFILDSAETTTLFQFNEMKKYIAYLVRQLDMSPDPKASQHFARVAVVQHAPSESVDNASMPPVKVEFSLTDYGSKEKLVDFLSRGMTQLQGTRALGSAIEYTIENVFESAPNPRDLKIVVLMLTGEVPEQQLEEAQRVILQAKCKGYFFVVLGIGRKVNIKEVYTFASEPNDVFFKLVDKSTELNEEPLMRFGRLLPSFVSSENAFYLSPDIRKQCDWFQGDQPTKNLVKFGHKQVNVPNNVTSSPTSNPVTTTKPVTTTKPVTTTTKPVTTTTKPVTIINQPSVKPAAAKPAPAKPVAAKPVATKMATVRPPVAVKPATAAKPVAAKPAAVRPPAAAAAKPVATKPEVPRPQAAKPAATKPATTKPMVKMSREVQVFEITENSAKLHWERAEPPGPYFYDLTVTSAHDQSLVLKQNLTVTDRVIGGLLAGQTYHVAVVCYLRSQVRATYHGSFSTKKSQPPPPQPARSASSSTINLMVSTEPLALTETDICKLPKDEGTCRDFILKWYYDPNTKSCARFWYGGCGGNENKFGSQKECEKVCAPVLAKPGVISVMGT

B1: biotinylated CMG2-AviTag construct (capillary morphogenesis gene 2, anthrax toxin receptor 2) (receptor)
chain: not shown
modifications: biotin (biotinylated CMG2-AviTag construct)
Question: What does the source list for B1?
Answer: Kd (Collagen VI): 800 nM; Kd (Collagen I): 500 nM
